Test results as given in patent US20230381229A1 (ALPINE IMMUNE SCIENCES, INC., published 2023).

B1: variant CD155 IgV-Fc P18T, G19D, M36T, S54N, L79P, L83Q, F91S, T107M, F108Y (Fc fusion)
chain: WPPPGTGDVVVQAPTQVTDFLGDSVTLPCYLQVPNTEVTHVSQLTWARHGESGNMAVFHQTQGPSYSESKRLEFVAARPGAEQRNASLRMSGLRVEDEGNYTCLFVMYPQGSRSVDIWLRVLGSGGGGSEPKSSDKTHTCPPCPAPEAEGAPSVFLFPPKPKDTLMISRTPEVTCVVVDVSHEDPEVKFNWYVDGVEVHNAKTKPREEQYNSTYRVVSVLTVLHQDWLNGKEYKCKVSNKALPAPIEKTISKAKGQPREPQVYTLPPSRDELTKNQVSLTCLVKGFYPSDIAVEWESNGQPENNYKTTPPVLDSDGSFFLYSKLTVDKSRWQQGNVFSCSVMHEALHNHYTQKSLSLSPGK
B2: variant CD155 IgV-Fc V9L, P18L, M55V, S69L, L79P, A81E, F91S, T107M (Fc fusion)
chain: WPPPGTGDLVVQAPTQVLGFLGDSVTLPCYLQVPNMEVTHVSQLTWARHGESGSVAVFHQTQGPSYSELKRLEFVAARPGEELRNASLRMSGLRVEDEGNYTCLFVMFPQGSRSVDIWLRVLGSGGGGSEPKSSDKTHTCPPCPAPEAEGAPSVFLFPPKPKDTLMISRTPEVTCVVVDVSHEDPEVKFNWYVDGVEVHNAKTKPREEQYNSTYRVVSVLTVLHQDWLNGKEYKCKVSNKALPAPIEKTISKAKGQPREPQVYTLPPSRDELTKNQVSLTCLVKGFYPSDIAVEWESNGQPENNYKTTPPVLDSDGSFFLYSKLTVDKSRWQQGNVFSCSVMHEALHNHYTQKSLSLSPGK
B3: variant CD155 IgV-Fc P18S, Q32R, Q62K, R78G, L79P, F91S, T107A, R113W (Fc fusion)
chain: WPPPGTGDVVVQAPTQVSGFLGDSVTLPCYLRVPNMEVTHVSQLTWARHGESGSMAVFHQTKGPSYSESKRLEFVAAGPGAELRNASLRMSGLRVEDEGNYTCLFVAFPQGSWSVDIWLRVLGSGGGGSEPKSSDKTHTCPPCPAPEAEGAPSVFLFPPKPKDTLMISRTPEVTCVVVDVSHEDPEVKFNWYVDGVEVHNAKTKPREEQYNSTYRVVSVLTVLHQDWLNGKEYKCKVSNKALPAPIEKTISKAKGQPREPQVYTLPPSRDELTKNQVSLTCLVKGFYPSDIAVEWESNGQPENNYKTTPPVLDSDGSFFLYSKLTVDKSRWQQGNVFSCSVMHEALHNHYTQKSLSLSPGK
B4: variant CD155 IgV-Fc Q12H, P18T, L21S, G22S, V57A, Q62R, L79P, F91S, T107M (Fc fusion)
chain: WPPPGTGDVVVHAPTQVTGFSSDSVTLPCYLQVPNMEVTHVSQLTWARHGESGSMAAFHQTRGPSYSESKRLEFVAARPGAELRNASLRMSGLRVEDEGNYTCLFVMFPQGSRSVDIWLRVLGSGGGGSEPKSSDKTHTCPPCPAPEAEGAPSVFLFPPKPKDTLMISRTPEVTCVVVDVSHEDPEVKFNWYVDGVEVHNAKTKPREEQYNSTYRVVSVLTVLHQDWLNGKEYKCKVSNKALPAPIEKTISKAKGQPREPQVYTLPPSRDELTKNQVSLTCLVKGFYPSDIAVEWESNGQPENNYKTTPPVLDSDGSFFLYSKLTVDKSRWQQGNVFSCSVMHEALHNHYTQKSLSLSPGK
B5: variant CD155 IgV-Fc V9I, P18S, S24P, H49Q, F58Y, Q60R, Q62K, L79P, F91S, T107M (Fc fusion)
chain: WPPPGTGDIVVQAPTQVSGFLGDPVTLPCYLQVPNMEVTHVSQLTWARQGESGSMAVYHRTKGPSYSESKRLEFVAARPGAELRNASLRMSGLRVEDEGNYTCLFVMFPQGSRSVDIWLRVLGSGGGGSEPKSSDKTHTCPPCPAPEAEGAPSVFLFPPKPKDTLMISRTPEVTCVVVDVSHEDPEVKFNWYVDGVEVHNAKTKPREEQYNSTYRVVSVLTVLHQDWLNGKEYKCKVSNKALPAPIEKTISKAKGQPREPQVYTLPPSRDELTKNQVSLTCLVKGFYPSDIAVEWESNGQPENNYKTTPPVLDSDGSFFLYSKLTVDKSRWQQGNVFSCSVMHEALHNHYTQKSLSLSPGK
B6: variant CD155 IgV-Fc P18T, W46C, H49R, S65A, S67V, A76T, L79P, S87T, L104M (Fc fusion)
chain: WPPPGTGDVVVQAPTQVTGFLGDSVTLPCYLQVPNMEVTHVSQLTCARRGESGSMAVFHQTQGPAYVESKRLEFVTARPGAELRNATLRMFGLRVEDEGNYTCMFVTFPQGSRSVDIWLRVLGSGGGGSEPKSSDKTHTCPPCPAPEAEGAPSVFLFPPKPKDTLMISRTPEVTCVVVDVSHEDPEVKFNWYVDGVEVHNAKTKPREEQYNSTYRVVSVLTVLHQDWLNGKEYKCKVSNKALPAPIEKTISKAKGQPREPQVYTLPPSRDELTKNQVSLTCLVKGFYPSDIAVEWESNGQPENNYKTTPPVLDSDGSFFLYSKLTVDKSRWQQGNVFSCSVMHEALHNHYTQKSLSLSPGK
B7: variant CD155 IgV-Fc V10F, T15S, P18L, R48Q, L79P, F91S, T107M, V115M (Fc fusion)
chain: WPPPGTGDVFVQAPSQVLGFLGDSVTLPCYLQVPNMEVTHVSQLTWAQHGESGSMAVFHQTQGPSYSESKRLEFVAARPGAELRNASLRMSGLRVEDEGNYTCLFVMFPQGSRSMDIWLRVLGSGGGGSEPKSSDKTHTCPPCPAPEAEGAPSVFLFPPKPKDTLMISRTPEVTCVVVDVSHEDPEVKFNWYVDGVEVHNAKTKPREEQYNSTYRVVSVLTVLHQDWLNGKEYKCKVSNKALPAPIEKTISKAKGQPREPQVYTLPPSRDELTKNQVSLTCLVKGFYPSDIAVEWESNGQPENNYKTTPPVLDSDGSFFLYSKLTVDKSRWQQGNVFSCSVMHEALHNHYTQKSLSLSPGK
B8: variant CD155 IgV-Fc P18S, L21M, Y30F, N35D, R84W, F91S, T107M, D116G (Fc fusion)
chain: WPPPGTGDVVVQAPTQVSGFMGDSVTLPCFLQVPDMEVTHVSQLTWARHGESGSMAVFHQTQGPSYSESKRLEFVAARLGAELWNASLRMSGLRVEDEGNYTCLFVMFPQGSRSVGIWLRVLGSGGGGSEPKSSDKTHTCPPCPAPEAEGAPSVFLFPPKPKDTLMISRTPEVTCVVVDVSHEDPEVKFNWYVDGVEVHNAKTKPREEQYNSTYRVVSVLTVLHQDWLNGKEYKCKVSNKALPAPIEKTISKAKGQPREPQVYTLPPSRDELTKNQVSLTCLVKGFYPSDIAVEWESNGQPENNYKTTPPVLDSDGSFFLYSKLTVDKSRWQQGNVFSCSVMHEALHNHYTQKSLSLSPGK
B9: variant CD155 IgV-Fc P18F, E51V, S54G, Q60R, L79Q, E82G, S87T, M90I, F91S, G92R, T107M (Fc fusion)
chain: WPPPGTGDVVVQAPTQVFGFLGDSVTLPCYLQVPNMEVTHVSQLTWARHGVSGGMAVFHRTQGPSYSESKRLEFVAARQGAGLRNATLRISRLRVEDEGNYTCLFVMFPQGSRSVDIWLRVLGSGGGGSEPKSSDKTHTCPPCPAPEAEGAPSVFLFPPKPKDTLMISRTPEVTCVVVDVSHEDPEVKFNWYVDGVEVHNAKTKPREEQYNSTYRVVSVLTVLHQDWLNGKEYKCKVSNKALPAPIEKTISKAKGQPREPQVYTLPPSRDELTKNQVSLTCLVKGFYPSDIAVEWESNGQPENNYKTTPPVLDSDGSFFLYSKLTVDKSRWQQGNVFSCSVMHEALHNHYTQKSLSLSPGK
B10: variant CD155 IgV-Fc P18T, D23G, Q60R, S67L, L79P, F91S, T107M, V115A (Fc fusion)
chain: WPPPGTGDVVVQAPTQVTGFLGGSVTLPCYLQVPNMEVTHVSQLTWARHGESGSMAVFHRTQGPSYLESKRLEFVAARPGAELRNASLRMSGLRVEDEGNYTCLFVMFPQGSRSADIWLRVLGSGGGGSEPKSSDKTHTCPPCPAPEAEGAPSVFLFPPKPKDTLMISRTPEVTCVVVDVSHEDPEVKFNWYVDGVEVHNAKTKPREEQYNSTYRVVSVLTVLHQDWLNGKEYKCKVSNKALPAPIEKTISKAKGQPREPQVYTLPPSRDELTKNQVSLTCLVKGFYPSDIAVEWESNGQPENNYKTTPPVLDSDGSFFLYSKLTVDKSRWQQGNVFSCSVMHEALHNHYTQKSLSLSPGK

Molecular target: T1, TIGIT (human)
T1 chain: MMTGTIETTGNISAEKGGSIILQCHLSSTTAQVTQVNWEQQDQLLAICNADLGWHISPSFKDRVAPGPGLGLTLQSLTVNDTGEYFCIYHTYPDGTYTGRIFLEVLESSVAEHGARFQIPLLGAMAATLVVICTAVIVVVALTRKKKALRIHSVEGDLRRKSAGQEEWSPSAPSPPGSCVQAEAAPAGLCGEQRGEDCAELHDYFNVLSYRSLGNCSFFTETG
Assay: cell-based or functional assay

In order of falling “IL-2 luciferase reporter, Normalized Fold Change from CD155-ECD” value:
1. B10  8.6 fold
2. B9  5.8 fold
3. B2  3.1 fold
4. B5  1.1 fold
5. B1  0.3 fold
6. B3  -2.2 fold
7. B8  -2.2 fold
8. B6  -3.4 fold
9. B7  -3.4 fold
10. B4  -4.1 fold
